We go through three molecules from patent US20240109962A1 (SPARX BIOSCIENCE, published 2024).

Like-named read-outs stand apart in the source and are kept apart here.

The target of assay [1] is LILRB2 antigen of the ELISA of Table 5 (format not specified) (UniProt Q8N423 22-460, limits assumed). The assay can be described thus: ELISA, antibody titration.
In assay [2] the target is T1, human LILRB3 expressed on 293T cells (human, UniProt O75022 24-631).
T1 construct: whole, on cells
In words: cell ELISA on fixed 293T transfectants, antibody 2 µg/ml, OD490. The protocol:
(§1) The cells were then immobilized with glutaraldehyde in the presence of 5% defatted milk at room temperature for 2 hours. An anti-LILRB2 antibody (2 μg/ml) was added to each well and incubated at room temperature for 2 hours. An HRP-labelled goat anti-mouse secondary antibody was then added into each well and incubated at room temperature for one hour. An HRP substrate, o-phenylenediamine dihydrochloride (OPD) was then added to each well. The plate was incubated at room temperature for 15 min to allow color development and OD₄₉₀ values were determined.

Assay [3] concerns the target T2, human LILRB1 expressed on 293T cells (human, UniProt Q8NHL6 24-650).
T2 construct: whole, on cells
Described as above. The protocol: as §1

The target of assay [4] is T3, His-tagged human LILRB2 polypeptide (human, UniProt Q8N423 22-460).
T3 construct: SPR analyte; also called His-tagged human LILBR2 polypeptide; not shown: His tag
T3 sequence (Q8N423 22-460 limits assumed): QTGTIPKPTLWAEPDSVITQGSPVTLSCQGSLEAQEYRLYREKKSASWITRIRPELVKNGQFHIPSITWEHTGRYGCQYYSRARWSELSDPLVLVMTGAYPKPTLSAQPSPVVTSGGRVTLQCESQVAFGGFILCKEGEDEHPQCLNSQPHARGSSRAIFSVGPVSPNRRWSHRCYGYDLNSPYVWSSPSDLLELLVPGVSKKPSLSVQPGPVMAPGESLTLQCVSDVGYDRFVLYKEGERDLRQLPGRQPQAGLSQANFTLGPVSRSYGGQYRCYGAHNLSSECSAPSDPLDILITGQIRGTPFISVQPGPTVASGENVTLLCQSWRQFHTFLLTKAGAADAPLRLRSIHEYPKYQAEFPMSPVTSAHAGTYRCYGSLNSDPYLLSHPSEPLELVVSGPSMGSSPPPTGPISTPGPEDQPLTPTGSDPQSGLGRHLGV
The assay can be described thus: SPR, antibody on CM5 chip, His-LILRB2 analyte, 1:1 model. The protocol:
Surface plasmon resonance (SPR) was used to examine binding activities of exemplary anti-LILBR2 antibodies disclosed herein. Briefly, the anti-LILBR2 antibody was diluted in a coating buffer to a concentration of 30 μg/ml, loaded onto CM5 chips at 10 μl/min to allow coating of the antibody on the surface of the CM5 chip. […] Binding affinity was measured based on the 1:1 binding model.

Assay [5] deals with T4, human LILRB2 expressed on cells (293T-LILRB2, CHO-K1-LILRB2) (human, UniProt Q8N423 22-597).
T4 construct: whole, on cells; the cell line is named under assay; also called HEK293T-LILRB2
T4 sequence (Q8N423 22-597): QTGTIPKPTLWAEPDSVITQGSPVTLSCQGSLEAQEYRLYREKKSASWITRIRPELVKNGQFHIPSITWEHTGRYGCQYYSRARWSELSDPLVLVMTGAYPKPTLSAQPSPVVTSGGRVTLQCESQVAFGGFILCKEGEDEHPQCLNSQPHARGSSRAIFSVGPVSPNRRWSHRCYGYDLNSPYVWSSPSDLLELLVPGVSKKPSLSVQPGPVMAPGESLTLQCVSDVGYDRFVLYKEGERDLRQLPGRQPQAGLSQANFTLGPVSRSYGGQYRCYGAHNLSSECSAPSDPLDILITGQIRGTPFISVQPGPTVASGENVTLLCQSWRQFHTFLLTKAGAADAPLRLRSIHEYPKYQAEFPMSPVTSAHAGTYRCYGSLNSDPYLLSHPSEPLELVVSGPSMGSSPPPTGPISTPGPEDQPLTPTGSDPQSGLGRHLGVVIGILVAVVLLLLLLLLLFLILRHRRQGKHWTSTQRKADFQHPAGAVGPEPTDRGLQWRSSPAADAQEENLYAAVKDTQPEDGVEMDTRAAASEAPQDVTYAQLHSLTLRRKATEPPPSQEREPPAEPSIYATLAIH
The assay can be described thus: flow cytometry, blockade of His-tagged HLA-A2 tetramer binding to 293T-LILRB2 cells.

The target of assay [6] is T4, human LILRB2 expressed on cells …. In words: flow cytometry on 293T-LILRB2 cells, serial dilution, APC anti-human IgG; fit table under the graph. An excerpt: (§2) The cells were washed and then subject to flow cytometry to measure levels of fluorescent signals.
The target is the same in assay [7]. Described as above.
Text: as §2
The source holds these as a separate data set.

Assay [8] has the same target. The assay can be described thus: flow cytometry, blockade of His-tagged HLA-G tetramer binding to 293T-LILRB2 cells; fit table under the graph. The protocol: (§3) Serial diluted humanized LILRB2 antibodies were then added to the mixture and incubated at room temperature for another 45 minutes. The binding of HLA-G/LILRB2 was detected afterwards using a secondary PE-labeled anti-His tag antibody via flow cytometry.

For assay [9] the target is unchanged. In words: flow cytometry, blockade of His-tagged HLA-G tetramer binding to 293T-LILRB2 cells; fit table under the graph, row headed EC50. The protocol: as §3
For assay [10] the target is unchanged. The assay can be described thus: flow cytometry on 293T-LILRB2 cells, serial dilution, APC anti-human IgG; fit table under the graph.
Text: as §2
This is another data set of the same source.

Assay [11] shares this target. In words: flow cytometry, blockade of His-tagged HLA-A2 tetramer binding to 293T-LILRB2 cells; fit table under the graph.
Assay [12] has the same target. The assay can be described thus: flow cytometry, blockade of His-tagged HLA-G tetramer binding to 293T-LILRB2 cells; fit table under the graph. The protocol:
as §3
This is another data set of the same source.

The target is the same in assay [13]. Described as above. The protocol:
as §3
The source holds these as a separate data set.

Assay [14] has the same target. In words: flow cytometry on 293T-LILRB2 cells, serial dilution, APC anti-human IgG; fit table under the graph.
Text: as §2
This is another data set of the same source.

Assay [15] shares this target. In words: flow cytometry, 293T-LILRB2 cells. An excerpt: The fluorescent signals were detected by flow cytometry.
The target of assay [16] is T5, recombinant human LILRB2 protein (human, UniProt Q8N423 22-460, limits assumed).
T5 construct: also called recombinant LILRB2 protein
T5 sequence (Q8N423 22-460 limits assumed): as the sequence (Q8N423 22-460 limits assumed) above
In words: ELISA, coated recombinant human LILRB2. Set-up: unit not given here. The protocol: This affinity maturation library was screened against human LILRB2 to identify antibodies having high binding affinity to LILRB2. Briefly, an ELISA plate was coated with 0.1 ug/well recombinant human LILRB2 protein. Serial diluted maturated h#2E1 antibodies were incubated in the LILRB2 coated plate for 2 hrs. The plate was washed and a secondary HRP-labeled anti-human IgG was then added to each well. After being incubated at room temperature for 1 hour, the colorimetric ELISA signals were developed by adding the TMB substrate and reaction was stopped by 1M H3PO4. Table 7 below provides binding activities of exemplary matured antibodies to recombinant LILRB2 protein.

Assay [17] deals with T4, human LILRB2 expressed on cells …. In words: flow cytometry, His-HLA-A2 tetramer (competitor) bound to 293T-LILRB2 cells, relative to no antibody. Set-up: concentration or dose not given beside the values. The protocol:
Serial diluted h#2E1 antibodies were then added to the mixture and incubated at room temperature for another 45 minutes. […]

LILRB2 antigen of the ELISA of Table 5 (format not specified), sequence (Q8N423 22-460 limits assumed): as above
T2 sequence (Q8NHL6 24-650): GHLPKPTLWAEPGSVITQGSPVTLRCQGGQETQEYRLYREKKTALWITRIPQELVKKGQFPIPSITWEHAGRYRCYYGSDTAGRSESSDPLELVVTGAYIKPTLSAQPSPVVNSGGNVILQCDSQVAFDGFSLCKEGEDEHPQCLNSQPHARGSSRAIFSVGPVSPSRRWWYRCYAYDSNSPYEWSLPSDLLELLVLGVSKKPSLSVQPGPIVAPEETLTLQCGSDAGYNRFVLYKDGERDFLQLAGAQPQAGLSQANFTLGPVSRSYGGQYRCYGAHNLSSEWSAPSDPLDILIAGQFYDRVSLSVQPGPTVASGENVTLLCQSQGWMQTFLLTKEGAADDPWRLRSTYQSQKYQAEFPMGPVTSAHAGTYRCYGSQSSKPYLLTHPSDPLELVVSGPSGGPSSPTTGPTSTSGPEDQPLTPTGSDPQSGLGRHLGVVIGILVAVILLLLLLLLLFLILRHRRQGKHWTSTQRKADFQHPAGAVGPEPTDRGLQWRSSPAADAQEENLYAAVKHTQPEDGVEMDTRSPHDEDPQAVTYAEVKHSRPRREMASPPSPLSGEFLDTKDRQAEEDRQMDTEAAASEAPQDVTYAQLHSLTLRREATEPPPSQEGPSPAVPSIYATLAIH

B1: Antibody 10D7 (antibody, V domains shown)
VH: EVKLVESGGGLVKPGGSLKLSCAASGFTFSSYGMSWVRQTPEKRLEWVATISGAFSYTYYPDSVKGRFTISRDNAKNNLYLQMSSLRSEDTAFYYCARHDNSLYYAMDYWGQGTSVTVSS
VL: NVQITQSPSYLAASPGETITINCRTSKSITKYLAWYQEQPGKTNKLLIYSGSTLQSGIPSRFSGSGSGTDFTLTISSLEPEDFAMYYCQQHNEYPWTFGGGTKLEIK
notes: Mouse hybridoma mAb purified from ascites
On to B1, for which the Kd in [1] was 705 pM. Also, the binding result in assay [2] is “binds”. In addition, in assay [3], the binding result is reported as “binds”. For the same molecule, in assay [4], the Kd worked out at 317 pM, the koff was found to be 0.000107 s⁻¹ and the kon was 338000 M⁻¹ s⁻¹.

B2: Antibody h#2E1 (antibody, V domains shown)
VH: EVQLVESGGGLVQPGGSLRLSCAVSGYSITSGYYWNWIRQAPGKGLEWVAYISYDGNNNYNPSLKNRFTISRDTSKNTFYLQMNSLRAEDTAVYYCAREESTMITTAWFAYWGQGTLVTVSS
VL: DIQMTQSPSSLSASVGDRVTITCRASENIYSNLAWYQQKPGKAPKLLIYGATNLASGVPSRFSGSGSGTDYTLTISSLQPEDFATYYCQHFWDTPYTFGQGTKVEIK
notes: Humanized variant of 11B12; detected with anti-human IgG
Regarding B2, the “IC50 (read off the curve)” value in assay [5] was roughly 1000 pM. The values for the Bmax in assay [6], in assay [7] and in assay [14] were 647000 RFU, 556000 RFU and 618000 RFU, respectively. The Kd in assay [6] is 446 pM; in assay [7], 162 pM; in [10] it was 364 pM; in assay [14], 377 pM. Further, the IC50 amounted to 361 pM in [8], 787 pM in assay [11] and 813 pM in assay [12]. Besides, the Span in assay [8] turned out to be 8000 RFU; in assay [13], 11900 RFU. The molecule also gave an EC50 in assay [9] of 163 pM.

B3: Antibody 2E1_FC11 (antibody, V domains shown)
VH: EVQLVESGGGLVQPGGSLRLSCAVSGYSITSGYYWNWIRQAPGKGLEWVAYISYDGNINYNPSLKNRFTISRDTSKNTFYLQMNSLRAEDTAVYYCAREESTMITTAWFAYWGQGTLVTVSS
VL: DIQMTQSPSSLSASVGDRVTITCRASENIYSNLAWYQQKPGKAPKLLIYGATNLASGVPSRFSGSGSGTDYTLTISSLQPEDFATYYCQHFWDYPYTFGQGTKVEIK
notes: also called A16
Consider B3, for which the Bmax turned out to be 461000 in [15] and 1.37 in assay [16]. Also, the IC50 in [8] was 360 pM; in assay [11] it was 468 pM; in [12], 472 pM; in assay [13] it was 442 pM. The Span in assay [8] amounted to 5700 RFU; in assay [13] it was 8620 RFU. In assay [17], the “% no Ab” value stood at 50.7%.
